Laboratory results from patent US20090010935A1.
One block for each substance: values may come before it.

Experiments:
[1] = biological target: human epidermal growth factor receptor (EGFR), full-length wild type (human) (UniProt P00533); assay: cell-based or functional assay
[2] = biological target: ΔEGFR, extracellular-deleted mutant human EGFR (EGFRvIII) (human) (UniProt P00533); assay: cell-based or functional assay

EGF-induced down-regulation of cell-surface EGFR in cells co-expressing EGFR and kinase deficient Neu (flow cytometry) [1]: 20 to 25%
Substance: N691 stop (cytoplasmic domain deleted rat cellular p185) (from UniProt P06494 23-690) (receptor)

EGF-induced down-regulation of cell-surface EGFR in cells co-expressing EGFR and kinase deficient Neu (flow cytometry) [1]: 20 to 25%
Substance: N757 (Nneu K757M, ATP-binding site mutant of rat cellular p185) (from UniProt P06494 23-1257) (receptor)

inhibition of anchorage-independent growth by T691 stop neu in U87MG parental cells lacking ΔEGFR [1]: 75.2%
radiation-induced apoptosis (DAPI), U87/T691 cells, 72 h after gamma-irradiation [1]: 20%
radiation-induced apoptosis (DAPI), U87/T691 cells, prolonged serum deprivation combined with radiation [1]: 33%
phosphorylation content of immunoprecipitated p155 ΔEGFR monomers (mAb Δ124 immunoprecipitation, PY-20 blot, scanning densitometry) [2]: 33.7%
Substance: T691 stop neu (ectodomain-derived, carboxyl-terminal deletion mutant of the rat p185neu oncogene) (from UniProt P06494 23-654) (receptor)

co-downregulation of cellular p185 with EGFR upon EGF treatment, M1 cells (flow cytometry) [1]: 20%
half life of WT cellular p185 after EGF treatment (pulse-chase, densitometry) [1]: 3 h
Substance: wildtype rat cellular p185 (Nneu) (from UniProt P06494 23-1257) (receptor)
